Measurements published in article PMC6255862, “A quaternary tetramer assembly inhibits the deubiquitinating activity of USP25” (Nature Communications, 2018).

Legend:
[1] = target: the molecule itself; assay: SEC; oligomer state of USP25 point mutants (Supplementary Figures 6 and 11, not shown); by the methods all USP25 constructs were loaded on a Superdex 16 column in 100 mM NaCl, 20 mM Tris-HCl pH 8.0, 1 mM β-mercaptoethanol and run on native PAGE
[2] = target: the molecule itself; assay: crystal structure; lysine-methylated USP25NCD tetramer fraction; space group I422, one molecule per asymmetric unit, tetramer from the crystal lattice; 3.28 Å

B1: USP25NCD L271W (enzyme, human, UniProt Q9UHP3 18-714, looked up)
chain: QTFLNQLREITGINDTQILQQALKDSNGNLELAVAFLTAKNAKTPQQEETTYYQTALPGNDRYISVGSQADTNVIDLTGDDKDDLQRAIALSLAESNRAFRETGITDEEQAISRVLEASIAENKACLKRTPTEVWRDSRNPYDRKRQDKAPVGLKNVGNTCWFSAVIQSLFNLLEFRRLVLNYKPPSNAQDLPRNQKEHRNLPFMRELRYLFALLVGTKRKYVDPSRAVEILKDAFKSNDSQQQDVSEFTHKLWDWLEDAFQMKAEEETDEEKPKNPMVELFYGRFLAVGVLEGKKFENTEMFGQYPLQVNGFKDLHECLEAAMIEGEIESLHSENSGKSGQEHWFTELPPVLTFELSRFEFNQALGRPEKIHNKLEFPQVLYLDRYMHRNREITRIKREEIKRLKDYLTVLQQRLERYLSYGSGPKRFPLVDVLQYALEFASSKPVCTSPVDDIDASSPPSGSIPSQTLPSTTEQQGALSSELPSTSPSSVAAISSRSVIHKPFTQSRIPPDLPMHPAPRHITEEELSVLESCLHRWRTEIENDTRDLQESISRIHRTIELMYSDKSMIQVPYRLHAVLVHEGQANAGHYWAYIFDHRESRWMKYNDIAVTKSSWEELVRDSFGGYRNASAYCLMYINDKAQFLIQEEFNKETGQPLVGIETLPPDLRDFVEEDNQRFEKELEEWDAQLAQKALQE
notes: The methods speak of 'USP25NCD point mutants'; not shown: Smt3, N-terminal, cleaved
stoichiometry N [1]: 4

B2: USP25NCD, lysine-methylated (tetramer fraction used for crystallization) (enzyme, human, UniProt Q9UHP3 18-714, looked up)
chain: QTFLNQLREITGINDTQILQQALKDSNGNLELAVAFLTAKNAKTPQQEETTYYQTALPGNDRYISVGSQADTNVIDLTGDDKDDLQRAIALSLAESNRAFRETGITDEEQAISRVLEASIAENKACLKRTPTEVWRDSRNPYDRKRQDKAPVGLKNVGNTCWFSAVIQSLFNLLEFRRLVLNYKPPSNAQDLPRNQKEHRNLPFMRELRYLFALLVGTKRKYVDPSRAVEILKDAFKSNDSQQQDVSEFTHKLLDWLEDAFQMKAEEETDEEKPKNPMVELFYGRFLAVGVLEGKKFENTEMFGQYPLQVNGFKDLHECLEAAMIEGEIESLHSENSGKSGQEHWFTELPPVLTFELSRFEFNQALGRPEKIHNKLEFPQVLYLDRYMHRNREITRIKREEIKRLKDYLTVLQQRLERYLSYGSGPKRFPLVDVLQYALEFASSKPVCTSPVDDIDASSPPSGSIPSQTLPSTTEQQGALSSELPSTSPSSVAAISSRSVIHKPFTQSRIPPDLPMHPAPRHITEEELSVLESCLHRWRTEIENDTRDLQESISRIHRTIELMYSDKSMIQVPYRLHAVLVHEGQANAGHYWAYIFDHRESRWMKYNDIAVTKSSWEELVRDSFGGYRNASAYCLMYINDKAQFLIQEEFNKETGQPLVGIETLPPDLRDFVEEDNQRFEKELEEWDAQLAQKALQE
modifications: lysines methylated (borane-dimethylamine complex and formaldehyde)
notes: USP25, human, residues 18-714 of the 1055-residue protein; Model holds Tyr159 to Ala708; NTD (18-158) and several loops (205-214, 256-260, 346-354, 471-515, 671-677) are not seen; also called USP25NCD tetramer; lysine methylated USP25NCD; not shown: Smt3, N-terminal, cleaved
stoichiometry N [2]: 4
